According to PMC4297519 (Nature, 2014):

Molecular target: the molecule itself
Experiment: crystal structure

B1: human CEACAM1 IgV domain (GST tag removed) (domain or fragment)
chain: QLTTESMPFNVAEGKEVLLLVHNLPQQLFGYSWYKGERVDGNRQIVGYAIGTQQATPGPANSGRETIYPNASLLIQNVTQNDTGFYTLQVIKSDLVNEEATGQFHVY
binding result: binds
